From the DeepSol protein solubility set

Assay: soluble on expression in E. coli; label from the status in PepcDB or PDB records

Sequence | soluble on expression in E. coli
MSLKNTLILGIESSCDETAASVVKNGNEIISSVVASQIESHKRFGGVVPEIASRHHVEQITLVIEEALKQANVTMDDLDGVAVTEGPGLVGALLIGVNAAKTLAFMHNLPLVGVHHIAGHIYANRFETEFKFPLLSLVVSGGHTELVLMKADNEFEIIGETRDDAAGEAYDKVARTLGLAYPGGVQIDKLAKDGEDTFHFPRAMMDEGSFDFSFSGLKSSFINTLHNLRQRGEEPNPNDMAASFQASVVDVLVSKTIRAAKQYDVKQLLLAGGVAANQGLRERLIQEVKLELPETELIIPPLALCGDNAAMIAAAGTVSFLQGKRSGFDMNANPGLLLEDIEGHHHHHH | soluble
MHHHHHHSSGVDLGTENLYFQSNAMEPFKHPIAILGAGSWGTALALVLARKGQKVRLWSYESDHVDEMQAEGVNNRYLPNYPFPETLKAYCDLKASLEGVTDILIVVPSFAFHEVITRMKPLIDAKTRIAWGTKGLAKGSRLLHEVVATELGQVPMAVISGPSLATEVAANLPTAVSLASNNSQFSKDLIERLHGQRFRVYKNDDMIGVELCGSVKNILAIATGISDGLKLGSNARAALITRGLTEMGRLVSVFGGKQETLTGLAGLGDLVLTCTDNQSRNRRFGLALGEGVDKKEAQQAIGQAIEGLYNTDQVHALAQKHAIEMPLTFQVHRILHEDLDPQQAVQELLERSPKAE | soluble
MNVKEVVTEEQLHDVLPVLQQLRTKLSKEETSSLFRNMKEENYKLFSLRNEDDEVVSLAGVAICTNFYNKKHVFVYDLVTAEAHRSKRHGKVLLSYIENWGKENECESIVLTSAFSRIDAHRFYEREGYDKVSYSFHKEL | not soluble
MKSVIIVGAGIGGLCLAQGLAKAGIEFEVWEADAGPQVRGQGYRLRIDAMGQRALRQCLPPDLFELFRASCAVSGPARFVDPQLNPLPGRRPENWRENADAGEAGGDLSADRQVLRDILSHGLAPQIRWGRRARGFERGGDGIVVHCADGSEHGAALVVAADGLHSPLRRQWLPQAEPEAIGALNLYGKTPLDGIDPALLAGPTIVFADGWTLVVEPMRFRAAMSGLAARHAPDCRLSPTDDYVYWAMFGREACLGGSLSGEEDAAGWRRRIEAASGGLHPGLSDLLRRTAPEAVMGRAVRMAAGVPSWPPGRLTVLGDAIHAMSPAGGVGANTALADAAMLAVCLADGDVDRAVARYEADMRGRAERALVATRAGTERLLRRLLEHHHHHH | soluble
MGSDKIHHHHHHMFTVMDIVQPDTVEEAYSILNKRKTNQVIGGSAFLRMGKKRIGTGIELSKLNLDYIKEYEDYVEIGSMTTFRTLETSSIIKNNFGRIIEDSVKNIIGVQFRNVVTVGATVFSKYGFSDLIVALLSLDTEVELYNIGRISLEEFLNRDYEKDLLIKIYIKKTNKNASYKSLRNAKSDYPILNVSVSKHMEQFKLCVGARPQKATIAKQASEFLSNNEINEINIDKAVEIASEELTFGSNMRASREYRKAMSKVLLKRAIMEVI | not soluble
MGSDKIHHHHHHMYPKNTWYVACTPDEIATKPLGRQICGEKIVFYRARENQVAAVEDFCPHRGAPLSLGYVEDGNLVCGYHGLVMGCDGKTVSMPGQRVRGFPCNKTFAAVERYGFIWVWPGDQAQADPALIPHLEWAVSDEWAYGGGLFHIGCDYRLMIDNLMDLTHETYVHASSIGQKEIDEAPPVTTVTGDEVVTARHMENIMAPPFWRMALRGNGLADDVPVDRWQICRFTPPSHVLIEVGVAHAGKGGYHAEAQHKASSIVVDFITPESDTSIWYFWGMARNFAAHDQTLTDNIREGQGKIFSEDLEMLERQQQNLLAHPERNLLKLNIDAGGVQSRKVLERIIAQERAPQPQLIATSANPA | not soluble
MEIFLSDPISAECPCGPDLEYDPEYLLLFTRAAPREEAQYGDFVSTPENINWAELERDAHRLLMRSKDIRILVVLLRCRIQQAGARGLSEALTLLETLCSTYPDAIHPQLLATEDITAEDAAVARSNALAALLDHEGVMADIRGITLSNNAAMRLQVRDVERSLSALRPADALAPESVRQQLADLEARGTLPLDAFRQAAETTERLQRHARETLNDQAPDFSRLTQLLALLPGAVQSTTPEILPQPQAEQPENATIVHTEQMQAEQIALPVHIAEEISPMTGAEPRQIRDRNDALERLRVIRRWFEHSEPSSPTIPLLRQAERLVGKRVSEVINEIPVELLEKWDALE | not soluble
MAHHHHHHMRCFTPRLSAAGNGVWRGFRQMYEEYALWRDRRDDERYAAVSEEGEEGITLSNRRICANPNACPRSVLLVPADCIVEAFRRERRGGVTADAVMFDLTCCRGSRGEARDNILRFLQAEEKGEKRGEDISEGQCSHADERGRYLIRVNSPEFDSANGFLDMELAALLGERIEGVLLPAVTVNTYSLVEEYIHPSHHLWALFDTPLSVVQASEICRQGHYRYAVMGSRRLAEDLHLPIGGVTYGDTYRGENNSENATPAALLGSLPLLNSSLQVLLAARAFNMNILDDAFEDASDTAGFSRDLHLSRSLGFEGKLVINPAQLASCHAAFAPSAEELSWARGVQQRMARRYATEESAGKLEAAQWRRAACLLERHREAELQGAAPTQRGGGGGVE | not soluble
MQTPSKKYVVDIWSDFVCPWCWIAKRRFENALNRSGMQDDVQVNVRAYRLAANQAPEPMIGALKRKLGNPASADSMMSTVSKYGRADGLDYRFDTMMFGDTADAHILVKAVEDTAVKKRLVEALYEQSTSHGRSLFDRSSLEAIAREVGVSDESIQLAWSSVELRNEMKDDESFAAQLGSGVPLFVFDSSFSVSGAQPDAVFLEALNKMVANSNPEDSSMMGQVCSIDGCKVLEHHHHHH | not soluble
MMRDSPSIQGTLDAATQHALLAGRHADPFSVLGPHQAGAHTVVRVLAPGARTVMAVLPGGQRTPLLPMQPGLFENTVPGLQPGAPAAYRLCIEWEGGIQHTADPYAFGPVLD | not soluble
MSLRVMIVDDHGTNRELCRFILAHIASHIDTFEDGQQAIDAMREMEILPDVILLDVMMPIKDGFVTAKEIRQAFVKHHIPIIFLTVLDDRDSFEKCLALGDDFILKPVERSVLIAKVQAHYRIVKMHNEVMEQRDELRHFREQVQYDYAISESIFTNLMEEMCHQVEHIFGIHYISTPSTIFNGDLIVVANRPHGGVYVMIADATGHGLPAAISTIPATRTFFSTAQKGLSLGEMVIELNHSLERFLPVGMMLAASVFEVRANGFEISWWGGGLPEAYLLDHHGNIVSRLISNHMPLGVLPSNEFEADVQHFKLEPNQKLVCYTDGIIEAMNEQGEYFGQERLEHVLTKAYSEALIPTLYDAVKKFSNRGKGDDLSILTMTFPITNSNSSDKALPKVVLSCIPLQTELHFPADVLRKISLMNEVRRFLTGIVSGGEDLDLLCSVLSELFANAIEHGLLELDSSLKETPDGFFEFYQLRDKRLKTLPEYHWLILKVNYQPDKQRIEIDLEHSGKGFDCQALKDASNQKSYGRGILLATQLCESLEYSNQGRRVTAVYSFARKDTLHYSLPSEGHHHHHH | soluble
MANFPASLLILNGKSADNQPLREAITLLRDEGIQIHVRVTWEKGDAQRYVDEARRLGVETVIAGGGDGTINEVSTALIQIRDGVAPALGLLPLGTANDFATSAGIPEALDKALKLAIAGNAMEIDMAMVNDKTCFINMATGGFGTRITTETPEKLKAALGGVSYLIHGLMRMDTLTPDRCEIRGENFHWQGDALVIGIGNGRQAGGGQQLCPTALINDGLLQLRIFTGEELLPALFSTLTQSDDNPNIIDGASAWFDIHAPHEITFNLDGEPLSGQEFHIEVLPGALRCRLPPDCPLLR | soluble
MSFSRRPKVTKSDIVDQIALNIKNNNLKLEKKYIRLVIDAFFEELKSNLCSNNVIEFRSFGTFEVRKRKGRLNARNPQTGEYVKVLDHHVAYFRPGKDLKERVWGIKG | soluble
MGSDKIHHHHHHMNVTLRQLQAFIAVAELGRFHLAADHLGLTQSAISILIKDLEVALKHRLFDRHTRMVSLTTAGAEFLPQARKIMSDLEIAVANVHELASLQRGRVTIAAAIVLAATLLPPVIARFVKRYPDISVQVRDMPEEEIRSALKRNEADLGIGTVSADDPEIQASVLMRDQLTLICRSDHRFAKARQVSWASLAGEGVIGLAKDNPLRGLVDRALIASGVEVKTRYEVRFSTTAISMVAEGLGIAILPENSRQLTTNVDVRIVELVDPVISRNISILQYRQPMLSPAAAKMKEFLMGASRKLS | not soluble
MGSDKIHHHHHHMNSDIIVADFWKNNEEILTDFDKDSFCESWTENEMWSIEFKVAQTPKNAHCYSFLDYESSVYFRGQEFVVKQLSHDAVGKTLSKDIRAPHIYYTCQDGRQDDAITGSFTLEQCLTHIFKTDNRGFSWEIIDPSNILEKVQQENFGNNNYLTLIDQLLDDYGVVVIPDNRHLVFKPREIYGAKTENFIRYKYNTDEASFDIDTLSLKTKIKGYGKVDSNGNNYFSPITYTSPEVEKWGIRWQEPVSDERYTVAGNMQRRLKLELQDYPATTGSVILKNDYECEKGDYVLFIYEPLGIDYDVQIVAYKKYPFTIKAPEITLSNNKKSIVSIMAQLAKVLKGAK | not soluble
MSEETIEKFEDNVEHQNQDQPVPEGMSKKQLRRQKYKVKWEEKKLVKRAAERIRKKEKRAALKESGDLSKLRKRKDFRTMAQSNSKQRIALDMSFDDLMIEKDQKRTVQQIGWCYTANRHSPDPFQFHVVGFDGPSRKIYDGNEHNLNQDIHLHQEKLENLFKPEEIVYLTSESENVLSDLDDTKVYVIGGIVDHNSQKGLCYRIAQEKGFGHAKLPLDEHLLMKSRRVLTINQVYEILVHYSVHKNWKDALLSIIPERKNAQLKEEVVEEKPESLEEIGKLDTESTDTATGSPKIN | soluble
MGSDKIHHHHHHMAATPRKLSSKEVAALVGNLMEASESTSLENGLEVRPYAFGENELNQLGDYHALRIINERFCRTARDVFLPMLRLQPRISSFPPEVRSFDDYRSSQDNFVSITASRIEELRGNQMIVIPPPFISLLTDSYYGGQIRHVPTTRTEFTATEERVIELVTDRLNVALQVAWRDLMALTFTVVSREESMQFASFVDGEDMVVNCSFMVQLPNTEPASFDILYPLQTLKPISSQLRSRMQSDFVDDDRSWREKLERAILSIPLTLSARLCEPEVPLRQLMQMQPGDVLPVHLTEAVSLLVEGQPIFEAAPGERGGQAALNLTRRHVRS | not soluble
MAHHHHHHMDAKLEARMASVWEVVSSRHAVEATDLSLIQNVTRALAAMHERVEQQHAELTRWHRQNYKLMCTMVVHVNWREEDHRQLRDELVNVRQQLGRVAVRGDVPLLRPRNGG | not soluble
MDLRTANVTRYILPLREGGSLPALAEADDEFKYVVKFRGAGHGTKALIAELIGGEIARTLGFRVPEIIFLNLDEAFGRTEADEEIQDLLQWSRGLNIGLHFLSGALTFDPVVHQVDGKTASQIVWMDAFLTNVDRTIKNTNMLMWHKELWLIDHGASLYFQHSWTNWQKQALTPFVQIKDHVLLPFADQLKETDMAFRQLLTSDKIWEIVNTVPDDWLNWTEGQETPQDLRDIYIQFLEERIKHSELFVNEAQHARKALI | not soluble
MGSDKIHHHHHHMEKLNFGIPEWAFEFHGHKCPYMPMGYRAGSYALKIAGLEKEKDHRTYLLSEMSPEDMNGCFNDGAQAATGCTYGKGLFSLLGYGKLALILYRPGRKAIRVHVRNSFMDELSTRASDFFRYRKQGYEPSEIPAGAIDPVLEWISSLEDEEIFEYREIDGFTFEPVKKNGAKVRCDVCGEYTYEADAKLLNGKPVCKPDYYGKK | not soluble
MAVMIVGGGMAGATLALAISRLSQGTIPVDLIEAYSPLDKEHPGFDARALALSDGTRQQLAALGIWQAMSGNATAITDIHVSERGHASVVNLHAADYHVQALGHVVELHDVGQRLFSLLQQAPGVRLHCPAKVVAVTRTQENATLTLDNGTALTGQLLVAADGSHSMLSQSCGIHWQQHEYDQVAVIANVTTGEPHRGRAFERFTPHGPLALLPMSNGRSSLVWCHDKHRQHDVDGWSETEFRQQLQLAFGWRLGQFTHIGERHSYPLRLLTASQHTSHRLALVGNAAQTLHPIAGQGFNLGIRDVMSLAETLVEAVKNQQDIGQYSVLSRYQQRREPDQHTTVAITDGLVRLFANRYTALAVGRNLGLIAMNNLPLMRDAFARRTLGWVERLEHHHHHH | not soluble
